Results from patent publication US20240209114A1 (JIANGSU HENGRUI PHARMACEUTICALS, published 2024).
Read-outs that look alike come from different tables or passages of the source. Each block holds one binder with its values, some of them ahead of it.

Key:
[1] = target: T1, MASP2 in human serum (human, UniProt O00187 16-686); assay: cell-based or functional assay
[2] = target: T2, Murine MASP2A (S632A) protein (murine, UniProt Q91WP0 16-685); assay: SPR (Biacore 8K), antibody captured on anti-human Fc chip, antigen as analyte
Method: (§1) The binding properties of the anti-MASP2 antibodies were determined by the method of Biacore. […] An anti-human Fc IgG capture chip was used to capture the antibodies, then antigens with different concentrations were used as a mobile phase for the determination, and finally curve fitting was performed according to a 1:1 mode to obtain affinity values.

[3] = target: Monkey MASP2A (S633A) protein (monkey, UniProt O00187 16-686 (human entry)); assay: SPR (Biacore 8K), antibody captured on anti-human Fc chip, antigen as analyte, 1:1 fit
Method: as §1

[4] = target: T1, MASP2 in human serum; assay: cell-based or functional assay; remark: listed apart in the source
[5] = target: MASP2 in monkey serum (monkey); assay: cell-based or functional assay
[6] = target: T1, MASP2 in human serum; assay: cell-based or functional assay; remark: listed apart in the source
[7] = target: T1, MASP2 in human serum; assay: cell-based or functional assay; remark: listed apart in the source
[8] = target: T3, Human MASP2A (S633A) protein (human, UniProt O00187 16-686); assay: SPR (Biacore 8K), antibody captured on anti-human Fc chip, antigen as analyte, 1:1 fit
T3 construct: also called human enzymatic mutant human MASP2A (S633A)
Method: as §1

[9] = target: T2, Murine MASP2A (S632A) protein; assay: as above
Method: as §1

[10] = target: MASP2 in mouse serum (mouse, UniProt Q91WP0 20-685); assay: cell-based or functional assay
Sequence of MASP2 in mouse serum (Q91WP0 20-685 limits assumed): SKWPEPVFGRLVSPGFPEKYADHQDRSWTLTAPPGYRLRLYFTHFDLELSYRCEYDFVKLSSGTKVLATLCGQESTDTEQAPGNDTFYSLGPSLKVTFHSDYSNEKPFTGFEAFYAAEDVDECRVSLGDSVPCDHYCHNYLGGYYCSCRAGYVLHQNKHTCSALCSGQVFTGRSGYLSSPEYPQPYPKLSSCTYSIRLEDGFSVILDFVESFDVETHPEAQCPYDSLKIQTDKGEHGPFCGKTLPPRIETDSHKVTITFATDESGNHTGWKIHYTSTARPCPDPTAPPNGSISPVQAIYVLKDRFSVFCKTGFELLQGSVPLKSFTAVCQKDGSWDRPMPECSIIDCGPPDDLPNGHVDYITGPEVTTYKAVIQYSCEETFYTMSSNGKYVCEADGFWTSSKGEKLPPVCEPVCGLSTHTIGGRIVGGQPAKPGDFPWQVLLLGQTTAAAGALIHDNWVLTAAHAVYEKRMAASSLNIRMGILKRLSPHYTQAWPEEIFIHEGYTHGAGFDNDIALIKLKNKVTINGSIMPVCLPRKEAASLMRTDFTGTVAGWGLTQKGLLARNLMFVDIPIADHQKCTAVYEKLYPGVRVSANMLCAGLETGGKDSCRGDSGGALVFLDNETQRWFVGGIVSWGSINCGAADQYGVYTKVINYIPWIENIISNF

Sequence of Monkey MASP2A (S633A) protein (O00187 other isoform, or with tags, fused parts or gaps S633A S633A): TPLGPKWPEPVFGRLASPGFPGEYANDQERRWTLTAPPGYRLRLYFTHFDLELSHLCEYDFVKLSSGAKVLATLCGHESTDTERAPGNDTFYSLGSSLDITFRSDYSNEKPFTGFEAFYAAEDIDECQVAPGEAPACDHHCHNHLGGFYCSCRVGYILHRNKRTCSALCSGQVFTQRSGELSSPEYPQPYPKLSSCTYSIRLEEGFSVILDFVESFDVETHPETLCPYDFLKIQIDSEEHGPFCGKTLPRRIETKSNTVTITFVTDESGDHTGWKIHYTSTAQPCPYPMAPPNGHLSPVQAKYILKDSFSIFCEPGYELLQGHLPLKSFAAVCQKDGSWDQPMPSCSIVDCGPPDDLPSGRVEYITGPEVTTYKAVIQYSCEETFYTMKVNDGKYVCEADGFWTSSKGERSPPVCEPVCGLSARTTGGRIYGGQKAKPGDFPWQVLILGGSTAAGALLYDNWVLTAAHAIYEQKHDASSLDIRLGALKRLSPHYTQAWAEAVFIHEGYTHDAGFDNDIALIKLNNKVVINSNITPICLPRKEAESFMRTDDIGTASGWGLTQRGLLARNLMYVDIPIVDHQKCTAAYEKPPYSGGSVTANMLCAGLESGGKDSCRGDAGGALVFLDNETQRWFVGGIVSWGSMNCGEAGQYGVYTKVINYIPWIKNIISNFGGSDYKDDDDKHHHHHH
T2 sequence (Q91WP0 other isoform, or with tags, fused parts or gaps S632A S632A): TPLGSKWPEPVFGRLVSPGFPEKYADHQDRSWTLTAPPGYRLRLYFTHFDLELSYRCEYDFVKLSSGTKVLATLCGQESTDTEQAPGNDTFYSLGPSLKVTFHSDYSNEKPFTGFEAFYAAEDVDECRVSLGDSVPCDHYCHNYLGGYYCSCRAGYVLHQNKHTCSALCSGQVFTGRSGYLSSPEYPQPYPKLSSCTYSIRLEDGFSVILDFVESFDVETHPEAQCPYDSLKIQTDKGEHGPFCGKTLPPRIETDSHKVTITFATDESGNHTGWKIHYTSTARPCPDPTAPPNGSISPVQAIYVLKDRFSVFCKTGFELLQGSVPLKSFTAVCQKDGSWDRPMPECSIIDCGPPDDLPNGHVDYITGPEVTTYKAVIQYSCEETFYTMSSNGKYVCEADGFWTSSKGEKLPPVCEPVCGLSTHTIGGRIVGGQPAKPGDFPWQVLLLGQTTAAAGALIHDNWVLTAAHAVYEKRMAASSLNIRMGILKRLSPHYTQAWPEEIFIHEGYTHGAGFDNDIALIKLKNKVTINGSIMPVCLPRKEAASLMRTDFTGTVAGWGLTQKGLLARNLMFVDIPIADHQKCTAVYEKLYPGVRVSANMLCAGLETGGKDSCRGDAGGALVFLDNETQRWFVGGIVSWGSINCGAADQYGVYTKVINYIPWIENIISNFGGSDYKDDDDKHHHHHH
T1 sequence (O00187 16-686 limits assumed): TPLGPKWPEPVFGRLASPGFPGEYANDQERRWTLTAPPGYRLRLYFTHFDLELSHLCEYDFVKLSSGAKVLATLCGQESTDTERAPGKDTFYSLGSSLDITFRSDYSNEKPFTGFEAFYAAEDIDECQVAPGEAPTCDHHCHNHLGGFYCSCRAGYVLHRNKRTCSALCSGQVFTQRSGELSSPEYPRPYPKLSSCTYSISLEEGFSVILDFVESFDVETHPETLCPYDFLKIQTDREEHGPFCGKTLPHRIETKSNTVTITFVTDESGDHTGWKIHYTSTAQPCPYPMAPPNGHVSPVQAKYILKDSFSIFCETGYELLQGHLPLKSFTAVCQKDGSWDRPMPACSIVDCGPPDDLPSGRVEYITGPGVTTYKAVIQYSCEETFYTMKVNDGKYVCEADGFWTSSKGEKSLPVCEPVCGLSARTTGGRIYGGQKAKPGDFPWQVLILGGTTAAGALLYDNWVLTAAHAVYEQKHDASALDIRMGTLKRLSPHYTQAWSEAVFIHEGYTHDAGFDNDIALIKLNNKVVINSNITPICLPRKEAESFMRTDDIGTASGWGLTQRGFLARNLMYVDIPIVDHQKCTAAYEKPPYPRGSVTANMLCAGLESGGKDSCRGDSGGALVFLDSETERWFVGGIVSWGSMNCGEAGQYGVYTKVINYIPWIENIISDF
T3 sequence (O00187 other isoform, or with tags, fused parts or gaps S633A S633A): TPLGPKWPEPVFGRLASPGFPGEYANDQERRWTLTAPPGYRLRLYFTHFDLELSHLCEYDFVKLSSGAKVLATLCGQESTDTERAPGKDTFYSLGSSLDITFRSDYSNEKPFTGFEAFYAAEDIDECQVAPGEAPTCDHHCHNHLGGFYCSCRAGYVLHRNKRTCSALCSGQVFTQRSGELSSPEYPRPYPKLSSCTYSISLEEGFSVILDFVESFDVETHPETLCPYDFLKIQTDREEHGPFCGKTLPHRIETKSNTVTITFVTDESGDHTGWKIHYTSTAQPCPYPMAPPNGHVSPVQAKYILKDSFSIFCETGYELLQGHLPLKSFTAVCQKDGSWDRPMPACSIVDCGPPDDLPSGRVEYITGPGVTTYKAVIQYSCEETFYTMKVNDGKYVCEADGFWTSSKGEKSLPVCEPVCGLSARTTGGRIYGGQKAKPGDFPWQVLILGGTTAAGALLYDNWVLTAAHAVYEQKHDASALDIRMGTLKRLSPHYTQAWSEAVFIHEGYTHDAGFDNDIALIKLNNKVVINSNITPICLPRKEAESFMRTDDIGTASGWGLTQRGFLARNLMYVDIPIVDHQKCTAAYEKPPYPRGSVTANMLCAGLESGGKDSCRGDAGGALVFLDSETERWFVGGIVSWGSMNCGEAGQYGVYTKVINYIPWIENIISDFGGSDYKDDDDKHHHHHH

B3: 67D2 (antibody, V domains shown)
VH: DVQLQESGPGLVKPSQSLSLTCTVTGYSITSDYAWNWIRQFPGNKLEWMGYISYSGRTSYNPSLKSRISITRDTSKNQFFLQLNSVTTEDTATYYCAILYAMNFWGQGTSVTVSS
VL: DIVMTQSQKFMSTSVGDRVSVTCKASQNVDTNVAWYQQKPGQSPKALIYSASYRFSGVPDRFTGSGSGTDFTLTISNVQSEDLAEYFCQQYNSNPLTFGSGTKLEIK
- IC50 (µg/mL), inhibition of the lectin pathway in 1% human serum (C4c deposition on mannan) [1]: 0.559 µg/mL

B5: 77H11 (H4L1) (antibody, V domains shown)
VH: EVQLQESGPGLVKPSQTLSLTCTVSGYSITSDYAWNWIRQPPGNKLEWMGYISYSGRTSYNPSLKSRITISRDTSKNQFSLKLSSVTAADTAVYYCAVLYALDYWGQGTTVTVSS
VL: DIQMTQSPSSLSASVGDRVTITCKASQNVDTNVAWYQQKPGKVPKALIYSASYRYSGVPSRFSGSGSGTDFTLTISSLQPEDVATYYCQQYNSNPLTFGQGTKLEIK
- IC50 (µg/mL), inhibition of the lectin pathway in 90% human serum (C4c deposition on mannan) [6]: 0.67 µg/mL

B8: 77H11 (H4L2) (antibody, V domains shown)
VH: EVQLQESGPGLVKPSQTLSLTCTVSGYSITSDYAWNWIRQPPGNKLEWMGYISYSGRTSYNPSLKSRITISRDTSKNQFSLKLSSVTAADTAVYYCAVLYALDYWGQGTTVTVSS
VL: DIQMTQSPSSLSASVGDRVTITCKASQNVDTNVAWYQQKPGKSPKALIYSASYRYSGVPSRFSGSGSGTDFTLTISSLQPEDVAEYYCQQYNSNPLTFGQGTKLEIK
- IC50 (µg/mL), inhibition of the lectin pathway in 90% human serum (C4c deposition on mannan) [6]: 0.443 µg/mL

B9: 29C1 (antibody, V domains shown)
VH: EVQLVESGGGLVKPGGSLKLSCAASGFTFSRFALSWVRQTPEKRLEWVAAVSRGGDYTYYPDSMKGRFTISRDNAMNTLYLQMSSLSSEDTAMYYCARHLYGYGHYYAMDYWGQGTSVTVSS
VL: DIVMTQSHKFMSTSVGDRVSITCKASQDVNTAVAWYQQKPGQSPKLLIYSASYRYTGVPDRFTGSGSGTDFTFTISSVQAEDLAVYYCQQHYSTPYTFGGGTKLEIK
- IC50 (µg/mL), inhibition of the lectin pathway in 1% human serum (C4c deposition on mannan) [7]: 0.086 µg/mL

B10: 29C1 (H1L1) (antibody, human IgG4 S228P, kappa, V domains shown)
VH: EVQLVESGGGLVKPGGSLRLSCAASGFTFSRFALSWVRQAPGKGLEWVSAVSRGGDYTYYPDSMKGRFTISRDNAKNSLYLQMNSLRAEDTAVYYCARHLYGYGHYYAMDYWGQGTTVTVSS
VL: DIQMTQSPSSLSASVGDRVTITCKASQDVNTAVAWYQQKPGKAPKLLIYSASYRYTGVPSRFSGSGSGTDFTFTISSLQPEDIATYYCQQHYSTPYTFGGGTKVEIKR
notes: Humanized 29C1, full-length human IgG4 (S228P); also called 29C1 (HIL1)
- binding result [2]: no binding
- Kd [3]: 193 pM
- koff [3]: 6.83e-05 s⁻¹
- kon [3]: 354000 M⁻¹ s⁻¹
- Kd [8]: 71.6 pM
- koff [8]: 2.94e-05 s⁻¹
- kon [8]: 410000 M⁻¹ s⁻¹
- 90% human serum IC50 (µg/mL), inhibition of the lectin pathway (C4c deposition on mannan) [4]: 1.18 µg/mL
- 90% monkey serum IC50 (µg/mL), inhibition of the lectin pathway (C4c deposition on mannan) [5]: 15.3 µg/mL
- IC50 (µg/mL), inhibition of the lectin pathway in 90% human serum (C4c deposition on mannan) [6]: 0.477 µg/mL

B11: 29C1 (H2L2) (antibody, V domains shown)
VH: EVQLVESGGGLVKPGGSLRLSCAASGFTFSRFALSWVRQAPGKGLEWVAAVSRGGDYTYYPDSMKGRFTISRDNAKNSLYLQMNSLRAEDTAVYYCARHLYGYGHYYAMDYWGQGTTVTVSS
VL: DIVMTQSPSSLSASVGDRVTITCKASQDVNTAVAWYQQKPGKSPKLLIYSASYRYTGVPSRFSGSGSGTDFTFTISSLQPEDIATYYCQQHYSTPYTFGGGTKVEIK
- IC50 (µg/mL), inhibition of the lectin pathway in 90% human serum (C4c deposition on mannan) [6]: 0.555 µg/mL

B12: 29C1 (H3L2) (antibody, V domains shown)
VH: EVQLVESGGGLVKPGGSLRLSCAASGFTFSRFALSWVRQAPGKGLEWVAAVSRGGDYTYYPDSMKGRFTISRDNAKNSLYLQMNSLRAEDTAVYYCARHLYGYGHYYAMDYWGQGTTVTVSS
VL: DIVMTQSPSSLSASVGDRVTITCKASQDVNTAVAWYQQKPGKSPKLLIYSASYRYTGVPSRFSGSGSGTDFTFTISSLQPEDIATYYCQQHYSTPYTFGGGTKVEIK
- IC50 (µg/mL), inhibition of the lectin pathway in 90% human serum (C4c deposition on mannan) [6]: 0.515 µg/mL

B13: 29C1 (H2L1) (antibody, V domains shown)
VH: EVQLVESGGGLVKPGGSLRLSCAASGFTFSRFALSWVRQAPGKGLEWVAAVSRGGDYTYYPDSMKGRFTISRDNAKNSLYLQMNSLRAEDTAVYYCARHLYGYGHYYAMDYWGQGTTVTVSS
VL: DIQMTQSPSSLSASVGDRVTITCKASQDVNTAVAWYQQKPGKAPKLLIYSASYRYTGVPSRFSGSGSGTDFTFTISSLQPEDIATYYCQQHYSTPYTFGGGTKVEIK
- IC50 (µg/mL), inhibition of the lectin pathway in 90% human serum (C4c deposition on mannan) [6]: 0.471 µg/mL

B16: OMS721 (antibody, human IgG4 S228P, lambda, V domains shown)
VH: QVTLKESGPVLVKPTETLTLTCTVSGFSLSRGKMGVSWIRQPPGKALEWLAHIFSSDEKSYRTSLKSRLTISKDTSKNQVVLTMTNMDPVDTATYYCARIRRGGIDYWGQGTLVTVSS
VL: QPVLTQPPSLSVSPGQTASITCSGEKLGDKYAYWYQQKPGQSPVLVMYQDKQRPSGIPERFSGSNSGNTATLTISGTQAMDEADYYCQAWDSSTAVFGGGTKLTVLG
notes: Positive control, synthesized according to WO2012151481A; also called narsoplimab; positive control antibody
- Kd [9]: 233 pM
- 90% monkey serum IC50 (µg/mL), inhibition of the lectin pathway (C4c deposition on mannan) [5]: 26.6 µg/mL
- 90% mouse serum IC50 (µg/mL), inhibition of the lectin pathway (C4c deposition on mannan) [10]: 3.74 µg/mL

Further lines, results first:

- IC50 (µg/mL), inhibition of the lectin pathway in 1% human serum (C4c deposition on mannan) [1]: 0.63 µg/mL
B1: 77H11 (antibody, V domains shown)
VH: DVQLQESGPGLVKPSQSLSLTCTVTGYSITSDYAWNWIRQFPGNKLEWMGYISYSGRTSYNPSLKSRISITRDTSKNQFFLQLNSVTTEDTATYYCAVLYALDYWGQGTSVTVSS
VL: DIVMTQSQKFMSTSVGDRVSVTCKASQNVDTNVAWYQQKPGQSPKALIYSASYRYSGVPDRFTGSGSGTDFTLTISDVQSEDLAEYFCQQYNSNPLTFGSGTKLEIK

- IC50 (µg/mL), inhibition of the lectin pathway in 1% human serum (C4c deposition on mannan) [1]: 0.738 µg/mL
B2: 67E8 (antibody, V domains shown)
VH: DVQLQESGPGLVKPSQSLSLTCTVTGYSITSDYAWNWIRQFPGNKLEWMGYISYSGRTSYNPSLKSRISITRDTSKNQFFLQLNSVTTEDTATYYCAILYAMDYWGQGTSVTVSS
VL: DIVMTQSQKFMSTSVGDRVSVTCKASQNVDTNVAWYQQKPGQSPKALIYSASYRYSGVPDRFTGSGSGTDFTLTISNVQSEDLAEYFCQQYNSNPLTFGSGTKLEIK

- binding result [2]: no binding
- Kd [3]: 140 pM
- koff [3]: 8.63e-05 s⁻¹
- kon [3]: 616000 M⁻¹ s⁻¹
- 90% human serum IC50 (µg/mL), inhibition of the lectin pathway (C4c deposition on mannan) [4]: 0.97 µg/mL
- 90% monkey serum IC50 (µg/mL), inhibition of the lectin pathway (C4c deposition on mannan) [5]: 21.6 µg/mL
- IC50 (µg/mL), inhibition of the lectin pathway in 90% human serum (C4c deposition on mannan) [6]: 0.624 µg/mL
B4: 77H11 (H3L1) (antibody, human IgG4 S228P, kappa, V domains shown)
VH: EVQLQESGPGLVKPSQTLSLTCTVSGYSITSDYAWNWIRQPPGKGLEWIGYISYSGRTSYNPSLKSRVTISRDTSKNQFSLKLSSVTAADTAVYYCAVLYALDYWGQGTTVTVSS
VL: DIQMTQSPSSLSASVGDRVTITCKASQNVDTNVAWYQQKPGKVPKALIYSASYRYSGVPSRFSGSGSGTDFTLTISSLQPEDVATYYCQQYNSNPLTFGQGTKLEIKR
notes: Humanized 77H11, full-length human IgG4 (S228P); also called 77H1(H3L1); 77H1 (H3L1)

- IC50 (µg/mL), inhibition of the lectin pathway in 90% human serum (C4c deposition on mannan) [6]: 0.454 µg/mL
B6: 77H11 (H3L2) (antibody, V domains shown)
VH: EVQLQESGPGLVKPSQTLSLTCTVSGYSITSDYAWNWIRQPPGKGLEWIGYISYSGRTSYNPSLKSRVTISRDTSKNQFSLKLSSVTAADTAVYYCAVLYALDYWGQGTTVTVSS
VL: DIQMTQSPSSLSASVGDRVTITCKASQNVDTNVAWYQQKPGKSPKALIYSASYRYSGVPSRFSGSGSGTDFTLTISSLQPEDVAEYYCQQYNSNPLTFGQGTKLEIK

- IC50 (µg/mL), inhibition of the lectin pathway in 90% human serum (C4c deposition on mannan) [6]: 1.58 µg/mL
B7: 77H11 (H2L2) (antibody, V domains shown)
VH: EVQLQESGPGLVKPSQTLSLTCTVSGYSITSDYAWNWIRQPPGKGLEWIGYISYSGRTSYNPSLKSRVTISVDTSKNQFSLKLSSVTAADTAVYYCAVLYALDYWGQGTTVTVSS
VL: DIQMTQSPSSLSASVGDRVTITCKASQNVDTNVAWYQQKPGKSPKALIYSASYRYSGVPSRFSGSGSGTDFTLTISSLQPEDVAEYYCQQYNSNPLTFGQGTKLEIK

- IC50 (µg/mL), inhibition of the lectin pathway in 90% human serum (C4c deposition on mannan) [6]: 0.526 µg/mL
B14: 29C1 (H3L1) (antibody, V domains shown)
VH: EVQLVESGGGLVKPGGSLRLSCAASGFTFSRFALSWVRQAPGKGLEWVAAVSRGGDYTYYPDSMKGRFTISRDNAKNSLYLQMNSLRAEDTAVYYCARHLYGYGHYYAMDYWGQGTTVTVSS
VL: DIQMTQSPSSLSASVGDRVTITCKASQDVNTAVAWYQQKPGKAPKLLIYSASYRYTGVPSRFSGSGSGTDFTFTISSLQPEDIATYYCQQHYSTPYTFGGGTKVEIK

- IC50 (µg/mL), inhibition of the lectin pathway in 90% human serum (C4c deposition on mannan) [6]: 0.534 µg/mL
B15: 29C1 (H1L2) (antibody, V domains shown)
VH: EVQLVESGGGLVKPGGSLRLSCAASGFTFSRFALSWVRQAPGKGLEWVSAVSRGGDYTYYPDSMKGRFTISRDNAKNSLYLQMNSLRAEDTAVYYCARHLYGYGHYYAMDYWGQGTTVTVSS
VL: DIVMTQSPSSLSASVGDRVTITCKASQDVNTAVAWYQQKPGKSPKLLIYSASYRYTGVPSRFSGSGSGTDFTFTISSLQPEDIATYYCQQHYSTPYTFGGGTKVEIK
